We go through 1 molecule from article PMC4855518 (Nature, 2016).

The test has as its target G. thermodenitrificans SecYE (Geobacillus thermodenitrificans NG80-2, UniProt A4IJK8;A4IJH4). Description: SEC.

B1: nanobody AYC08 (VHH)
VHH: QVQLVETGGGLVQPGGSLRLSCGASGSIFNMYAMGWYRQAPGKQREVVARIATDDSTMYPDSVKGRFTISRDNAKNTVYLQMNSLKPEDTAVYYCYYQRTVMSQPYWGQGTQVTVSS
For the molecule B1, the binding result was “binds”.
